Measurements from publication PMC6385319.

Target: T1, mCherry-APPL1-delta-PTB
T1 sequence (Q9UKG1 whole entry, species assumed, looked up): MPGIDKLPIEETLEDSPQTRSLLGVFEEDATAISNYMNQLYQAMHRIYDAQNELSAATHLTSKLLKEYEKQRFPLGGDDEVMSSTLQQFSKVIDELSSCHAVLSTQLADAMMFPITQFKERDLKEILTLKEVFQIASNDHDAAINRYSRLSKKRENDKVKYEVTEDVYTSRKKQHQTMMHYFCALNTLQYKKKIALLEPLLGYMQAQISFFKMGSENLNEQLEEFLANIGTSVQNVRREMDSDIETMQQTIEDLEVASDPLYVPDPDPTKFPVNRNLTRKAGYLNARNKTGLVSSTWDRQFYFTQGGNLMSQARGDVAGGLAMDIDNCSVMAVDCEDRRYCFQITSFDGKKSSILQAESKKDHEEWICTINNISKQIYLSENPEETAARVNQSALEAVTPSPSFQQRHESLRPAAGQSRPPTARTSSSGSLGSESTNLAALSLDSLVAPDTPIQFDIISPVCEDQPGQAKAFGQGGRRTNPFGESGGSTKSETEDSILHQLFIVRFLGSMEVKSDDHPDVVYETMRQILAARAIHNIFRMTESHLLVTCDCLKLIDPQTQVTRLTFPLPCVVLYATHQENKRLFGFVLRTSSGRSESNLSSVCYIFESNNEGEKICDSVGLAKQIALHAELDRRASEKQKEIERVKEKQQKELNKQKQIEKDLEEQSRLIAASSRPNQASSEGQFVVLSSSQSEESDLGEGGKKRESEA
Experiment: FRET or BRET; FRET/FLIM in live primary hippocampal neurons at DIV 7, 37 °C; GFP-Akt1 donor, mCherry fusion acceptor; donor lifetime measured in cell body and growth cone; untreated

Sequence of GFP-Akt1 (P31749 whole entry, the tested form may be a part): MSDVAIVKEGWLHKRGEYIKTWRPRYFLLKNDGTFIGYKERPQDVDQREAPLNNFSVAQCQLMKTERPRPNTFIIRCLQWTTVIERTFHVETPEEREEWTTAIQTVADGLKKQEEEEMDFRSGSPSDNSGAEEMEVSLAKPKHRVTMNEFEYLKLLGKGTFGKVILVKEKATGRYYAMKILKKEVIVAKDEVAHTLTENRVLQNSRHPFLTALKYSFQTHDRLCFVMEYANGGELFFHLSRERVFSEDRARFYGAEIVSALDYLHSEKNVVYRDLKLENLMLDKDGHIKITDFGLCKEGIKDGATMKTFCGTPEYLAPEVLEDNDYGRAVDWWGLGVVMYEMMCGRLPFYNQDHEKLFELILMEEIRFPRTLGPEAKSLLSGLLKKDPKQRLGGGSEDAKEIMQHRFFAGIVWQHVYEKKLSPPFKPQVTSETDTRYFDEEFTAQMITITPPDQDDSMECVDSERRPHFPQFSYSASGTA

- FRET efficiency (growth cone): < 1%
Substance: GFP-Akt1 (from UniProt P31749 1-480)
